Like-named read-outs stand apart in the source and are kept apart here. Marks after values point to notes of the source that are not given here.
Assays:
[1] = test system: A431-CCK2R/A431-mock tumour xenografted BALB/c nude mice; conditions: mouse, in vivo
Method: All animal experiments were conducted in compliance with the Austrian and Dutch animal protection laws and with approval of the Austrian Ministry of Science (BMWF-66.011/000604-II/3b/2012 and BMWFW-66.011/0049-WF/II/3b/2014). In vivo stability studies were conducted in 5-week-old female BALB/c mice (in-house breed, ZVTA Innsbruck, Dr. Hermann Dietrich). The biodistribution studies were performed using female 8−10-week-old athymic BALB/c nude mice (Charles River Laboratories, Sulzfeld, Germany). Tumour xenografts were induced by subcutaneous injection of 2 × 10^6 A431-CCK2R cells (receptor positive) in the right and the same amount of A431-mock (receptor negative) in the left flank. Tumours were allowed to grow until they had reached a volume of 0.3–0.6 cm^3. To evaluate the biodistribution profile nude mice (n = 4) were intravenously injected with either 1-2 MBq ^68Ga- or 0.3 MBq ^89Zr-labelled mono-, di-, and trimer (0.1–0.2 nmol). The animals were sacrificed by cervical dislocation after 1 h as well as 2 h and 4 h in case of ^68Ga- and ^89Zr-labelled trimer, followed by the collection of organs and tissue. The collected samples were measured in the gamma counter and the results were calculated as percentage of injected dose per gram tissue (% ID/g).

[2] = type: physicochemical
Method: Aliquots (50 μL) of ^68Ga- and ^89Zr-labelled mono-, di-, and trimer (10 μM) were diluted in 450 μL PBS. After adding 500 μL octanol the mixture was vortexed with 1400 rpm (MS 3 basic vortexer, IKA, Staufen, Germany) for 15 min at RT followed by centrifugation for 2 min at 4500 rpm. Subsequently, 100 μL aliquots of the organic and the aqueous layer were collected and logD values were calculated using Excel (n = 3, six replicates) after gamma counter measurement.

CSCC[C@H](NC(=O)[C@H](Cc1c[nH]c2ccccc12)NC(=O)CNC(=O)[C@H](Cc1ccc(O)cc1)NC(=O)[C@H](C)NC(=O)[C@@H](CCC(=O)O)NC(=O)CCSC1CC(=O)N(CCC(=O)NC2CCCN(O)C(=O)C=C(C)CCOC(=O)C(NC(=O)CCN3C(=O)CC(SCCC(=O)N[C@H](CCC(=O)O)C(=O)N[C@@H](C)C(=O)N[C@@H](Cc4ccc(O)cc4)C(=O)NCC(=O)N[C@@H](Cc4c[nH]c5ccccc45)C(=O)N[C@@H](CCSC)C(=O)N[C@@H](CC(=O)O)C(=O)N[C@@H](Cc4ccccc4)C(N)=O)C3=O)CCCN(O)C(=O)C=C(C)CCOC(=O)C(NC(C)=O)CCCN(O)C(=O)C=C(C)CCOC2=O)C1=O)C(=O)N[C@@H](CC(=O)O)C(=O)N[C@@H](Cc1ccccc1)C(N)=O (some centres unmarked) [^68Ga-labelled Dimer, metal not drawn]
Tumour-to-organ ratio (T/O): A431-mock [1]: 17.9 ± 6.1^c | Tumour-to-organ ratio (T/O): Blood [1]: 16.0 ± 3.1^cd | Tumour-to-organ ratio (T/O): Bone [1]: 11.6 ± 1.9^c | Tumour-to-organ ratio (T/O): Heart [1]: 27.2 ± 4.8^cd | Tumour-to-organ ratio (T/O): Intestine [1]: 19.9 ± 4.9^acd | Tumour-to-organ ratio (T/O): Kidneys [1]: 0.30 ± 0.06^cd | Tumour-to-organ ratio (T/O): Liver [1]: 11.1 ± 2.4^c | Tumour-to-organ ratio (T/O): Lung [1]: 14.4 ± 2.3^cd | Tumour-to-organ ratio (T/O): Muscle [1]: 31.4 ± 13.2^cd | Tumour-to-organ ratio (T/O): Pancreas [1]: 17.9 ± 3.2^cd | Tumour-to-organ ratio (T/O): Spleen [1]: 23.1 ± 4.2^cd | Tumour-to-organ ratio (T/O): Stomach [1]: 4.0 ± 0.5^c | Biodistribution: A431-CCK2R tumour (receptor positive) ([1]; 1 h): 8.36 ± 0.90^ac % ID/g | Biodistribution: A431-mock tumour (receptor negative) ([1]; 1 h): 0.36 ± 0.22^cd % ID/g | Biodistribution: Blood ([1]; 1 h): 0.53 ± 0.06^cd % ID/g | Biodistribution: Bone ([1]; 1 h): 0.60 ± 0.21^cd % ID/g | Biodistribution: Heart ([1]; 1 h): 0.31 ± 0.04^cd % ID/g | Biodistribution: Intestine ([1]; 1 h): 0.44 ± 0.06^c % ID/g | Biodistribution: Kidneys ([1]; 1 h): 28.9 ± 3.4^cd % ID/g | Biodistribution: Liver ([1]; 1 h): 0.78 ± 0.09^c % ID/g | Biodistribution: Lung ([1]; 1 h): 0.59 ± 0.08^cd % ID/g | Biodistribution: Muscle ([1]; 1 h): 0.30 ± 0.08^cd % ID/g | Biodistribution: Pancreas ([1]; 1 h): 0.48 ± 0.06^cd % ID/g | Biodistribution: Spleen ([1]; 1 h): 0.37 ± 0.04^cd % ID/g | Biodistribution: Stomach ([1]; 1 h): 2.13 ± 0.23^c % ID/g | Distribution coefficient logD (pH 7.4) [2]: −2.38 ± 0.04

CSCC[C@H](NC(=O)[C@H](Cc1c[nH]c2ccccc12)NC(=O)CNC(=O)[C@H](Cc1ccc(O)cc1)NC(=O)[C@H](C)NC(=O)[C@@H](CCC(=O)O)NC(=O)CCSC1CC(=O)N(CCC(=O)NC2CCCN(O)C(=O)C=C(C)CCOC(=O)C(NC(C)=O)CCCN(O)C(=O)C=C(C)CCOC(=O)C(NC(C)=O)CCCN(O)C(=O)C=C(C)CCOC2=O)C1=O)C(=O)N[C@@H](CC(=O)O)C(=O)N[C@@H](Cc1ccccc1)C(N)=O (some centres unmarked) [^68Ga-labelled Monomer, metal not drawn]
Tumour-to-organ ratio (T/O): A431-mock [1]: 16.3 ± 3.3^bd | Tumour-to-organ ratio (T/O): Blood [1]: 14.4 ± 3.6^b | Tumour-to-organ ratio (T/O): Bone [1]: 17.1 ± 7.4^bd | Tumour-to-organ ratio (T/O): Heart [1]: 29.5 ± 9.3^bd | Tumour-to-organ ratio (T/O): Intestine [1]: 9.4 ± 3.7^b | Tumour-to-organ ratio (T/O): Kidneys [1]: 0.86 ± 0.13^abd | Tumour-to-organ ratio (T/O): Liver [1]: 21.1 ± 3.1^abd | Tumour-to-organ ratio (T/O): Lung [1]: 11.7 ± 2.1^bd | Tumour-to-organ ratio (T/O): Muscle [1]: 20.4 ± 1.8^b | Tumour-to-organ ratio (T/O): Pancreas [1]: 16.7 ± 3.0^bd | Tumour-to-organ ratio (T/O): Spleen [1]: 27.3 ± 6.3^b | Tumour-to-organ ratio (T/O): Stomach [1]: 4.6 ± 1.1^b | Biodistribution: A431-CCK2R tumour (receptor positive) ([1]; 1 h): 4.86 ± 1.00^d % ID/g | Biodistribution: A431-mock tumour (receptor negative) ([1]; 1 h): 0.30 ± 0.04^b % ID/g | Biodistribution: Blood ([1]; 1 h): 0.35 ± 0.06^ab % ID/g | Biodistribution: Bone ([1]; 1 h): 0.31 ± 0.08^b % ID/g | Biodistribution: Heart ([1]; 1 h): 0.17 ± 0.02^ab % ID/g | Biodistribution: Intestine ([1]; 1 h): 0.58 ± 0.17^b % ID/g | Biodistribution: Kidneys ([1]; 1 h): 5.57 ± 0.57^abd % ID/g | Biodistribution: Liver ([1]; 1 h): 0.23 ± 0.02^ab % ID/g | Biodistribution: Lung ([1]; 1 h): 0.42 ± 0.06^ab % ID/g | Biodistribution: Muscle ([1]; 1 h): 0.20 ± 0.05^b % ID/g | Biodistribution: Pancreas ([1]; 1 h): 0.29 ± 0.02^ab % ID/g | Biodistribution: Spleen ([1]; 1 h): 0.18 ± 0.04^ab % ID/g | Biodistribution: Stomach ([1]; 1 h): 1.07 ± 0.14^ab % ID/g | Distribution coefficient logD (pH 7.4) [2]: −2.99 ± 0.02

CSCC[C@H](NC(=O)[C@H](Cc1c[nH]c2ccccc12)NC(=O)CNC(=O)[C@H](Cc1ccc(O)cc1)NC(=O)[C@H](C)NC(=O)[C@@H](CCC(=O)O)NC(=O)CCSC1CC(=O)N(CCC(=O)NC2CCCN(O)C(=O)C=C(C)CCOC(=O)C(NC(=O)CCN3C(=O)CC(SCCC(=O)N[C@H](CCC(=O)O)C(=O)N[C@@H](C)C(=O)N[C@@H](Cc4ccc(O)cc4)C(=O)NCC(=O)N[C@@H](Cc4c[nH]c5ccccc45)C(=O)N[C@@H](CCSC)C(=O)N[C@@H](CC(=O)O)C(=O)N[C@@H](Cc4ccccc4)C(N)=O)C3=O)CCCN(O)C(=O)C=C(C)CCOC(=O)C(NC(=O)CCN3C(=O)CC(SCCC(=O)N[C@H](CCC(=O)O)C(=O)N[C@@H](C)C(=O)N[C@@H](Cc4ccc(O)cc4)C(=O)NCC(=O)N[C@@H](Cc4c[nH]c5ccccc45)C(=O)N[C@@H](CCSC)C(=O)N[C@@H](CC(=O)O)C(=O)N[C@@H](Cc4ccccc4)C(N)=O)C3=O)CCCN(O)C(=O)C=C(C)CCOC2=O)C1=O)C(=O)N[C@@H](CC(=O)O)C(=O)N[C@@H](Cc1ccccc1)C(N)=O (some centres unmarked) [^68Ga-labelled Trimer, metal not drawn]
Biodistribution: A431-CCK2R tumour (receptor positive) ([1]; 1 h): 6.07 ± 1.56 % ID/g | Biodistribution: A431-mock tumour (receptor negative) ([1]; 1 h): 2.17 ± 0.70^e % ID/g | Biodistribution: Blood ([1]; 1 h): 3.70 ± 1.27 % ID/g | Biodistribution: Bone ([1]; 1 h): 2.03 ± 0.88 % ID/g | Biodistribution: Heart ([1]; 1 h): 1.60 ± 0.28^e % ID/g | Biodistribution: Intestine ([1]; 1 h): 1.15 ± 0.28^e % ID/g | Biodistribution: Kidneys ([1]; 1 h): 49.7 ± 10.1 % ID/g | Biodistribution: Liver ([1]; 1 h): 3.71 ± 0.75 % ID/g | Biodistribution: Lung ([1]; 1 h): 4.47 ± 1.50 % ID/g | Biodistribution: Muscle ([1]; 1 h): 0.75 ± 0.15 % ID/g | Biodistribution: Pancreas ([1]; 1 h): 1.37 ± 0.26^e % ID/g | Biodistribution: Spleen ([1]; 1 h): 2.15 ± 0.32^e % ID/g | Biodistribution: Stomach ([1]; 1 h): 3.17 ± 0.54 % ID/g | Biodistribution: A431-CCK2R tumour (receptor positive) ([1]; 2 h): 8.73 ± 2.65^e % ID/g | Biodistribution: A431-mock tumour (receptor negative) ([1]; 2 h): 3.18 ± 0.51 % ID/g | Biodistribution: Blood ([1]; 2 h): 2.53 ± 0.67 % ID/g | Biodistribution: Bone ([1]; 2 h): 2.52 ± 0.79 % ID/g | Biodistribution: Heart ([1]; 2 h): 2.18 ± 0.31 % ID/g | Biodistribution: Intestine ([1]; 2 h): 1.86 ± 0.33 % ID/g | Biodistribution: Kidneys ([1]; 2 h): 59.6 ± 4.3^f % ID/g | Biodistribution: Liver ([1]; 2 h): 4.09 ± 0.85 % ID/g | Biodistribution: Lung ([1]; 2 h): 5.78 ± 0.92 % ID/g | Biodistribution: Muscle ([1]; 2 h): 0.65 ± 0.14 % ID/g | Biodistribution: Pancreas ([1]; 2 h): 1.80 ± 0.31 % ID/g | Biodistribution: Spleen ([1]; 2 h): 2.89 ± 0.53 % ID/g | Biodistribution: Stomach ([1]; 2 h): 3.86 ± 1.36^f % ID/g | Biodistribution: A431-CCK2R tumour (receptor positive) ([1]; 4 h): 14.44 ± 3.40^f % ID/g | Biodistribution: A431-mock tumour (receptor negative) ([1]; 4 h): 2.16 ± 0.54 % ID/g | Biodistribution: Blood ([1]; 4 h): 1.76 ± 0.43 % ID/g | Biodistribution: Bone ([1]; 4 h): 2.26 ± 0.41 % ID/g | Biodistribution: Heart ([1]; 4 h): 1.51 ± 0.33^f % ID/g | Biodistribution: Intestine ([1]; 4 h): 2.48 ± 0.59 % ID/g | Biodistribution: Kidneys ([1]; 4 h): 172.1 ± 14.8 % ID/g | Biodistribution: Liver ([1]; 4 h): 6.01 ± 2.54 % ID/g | Biodistribution: Lung ([1]; 4 h): 3.75 ± 0.84^f % ID/g | Biodistribution: Muscle ([1]; 4 h): 1.01 ± 0.37 % ID/g | Biodistribution: Pancreas ([1]; 4 h): 3.10 ± 1.13 % ID/g | Biodistribution: Spleen ([1]; 4 h): 2.77 ± 0.78 % ID/g | Biodistribution: Stomach ([1]; 4 h): 13.6 ± 4.9 % ID/g | Distribution coefficient logD (pH 7.4) [2]: −2.20 ± 0.07
